# Assay results reported in the DeepSol protein solubility set.
# Assay: soluble on expression in E. coli; label from the status in PepcDB or PDB records
row,Sequence,soluble on expression in E. coli
1,TPAAPISTVADGDWPAYGRNQEGQRFSPLKQINADNVKNLKEAWVFRTGDLKQPNDPGEITNEVTPIKVGDTLFLCTAHQRLFALDAATGKEKWHFDPQLNADPSFQHVTCRGVSYHEAKADNAPADVVADCPRRIILPVNDGRLFAVNADNGKLCETFANKGILNLQTNMPVTTPGMYEPTSPPIITDKTIVIAGAVTDNFSTREPSGVIRGFDVNTGKLLWAFDPGAKDPNAIPSDEHHFTLNSPNSWAPAAYDAKLDLVYLPMGVTTPDIWGGNRTPEQERYASSIVALNATTGKLAWSYQTVHHDLWDMDMPSQPTLADIEVNGKTVPVIYAPAKTGNIFVLDRRNGELVVPAPEKPVPQGAAKGDYVTKTQPFSDLSFRPKKDLTGADMWGATMFDQLVCRVIFHQLRYEGIFTPPSEQGTLVFPGNLGMFEWGGISVDPNRQVAIANPMALPFVSKLIPRGPGNPMEPPKDAKGSGTESGVQPQYGVPYGVTLNPFLSPFGLPCKQPAWGYISALDLKTNEVVWKKRIGTPQDSLPFPMPVKLPFTMGMPMLGGPISTAGNVLFIGATADNYLRAYNMSNGEKLWEARLPAGGQATPMTYEVNGKQYVVISAGGHGSFGTKMGDYIVAYALPDDAK,not soluble
2,SGGPGTKSGEPLCPPLLCNQDKETLTLLIQVPRIQPQSLQGDLNPLWYKLRFSAQDLVYSFFLQFAPENKLSTTEPVISISSNNAVIELAKSPESHGHWREWYYGVNNDSLELQECSNSDQLQGKEERVNEESHLTEKEYIEHCNTPTTDSDSSIAVKALQIDSFGLVTCFQQESLDVSQMILGKSQQPESKMQSEFIKEKSATCSNEEKDNLNESVITEEKETDGDHLSSLLNKTTVHNIPGFDSIKETNMQDGSVQVIKDHVTNCAFSFQNSLLYDLD,soluble
3,MAVNQDTLYVKGDRNVEVTKREVTLGDLVSMECSNRVILPHLKTMKVLKIPENGEKRYVISILKIIACIHEKYPGLEVQNLGETDLIVTYEMQKTPSK,soluble
4,MGHHHHHHSHMAQLENQILETLKPLIDANTGKSYVAAKNVKNLKCGDAEISLDVVLAYPAKSQFDAVRQQFEAALAPLAEGRAIKIAVSAQIVSHSAQRGVPLLPGVKNVIAVASGKGGVGKSTTAANLALALADEGARVGLLDADIYGPSQPLMMGLQGQRPETADGKLTPLSNHGIQTMSIGYLVDADQAMVWRGPMVSQALQQLLNDTRWDDLDYLVIDMPPGTGDVQLTLSQKVPVTGALIVTTPQDIALLDARKGVTMFQKVGVPILGLVENMAIHVCSNCGHAEHIFGEGGAVKMAQDFGVELLGSLPLDLAIRQAVDEGRPSVAADPSGKPAELYRAIARRVAVKVGEKAQDFSGKFPKIVIQNN,soluble
5,VAAAPRSPEDRRAQILDVAVRLLETVPFDDLSMDQVAAEAGVSPPLLFHYFKNKQGFRNAVLEASASELQRRMTPDAALPVSGQLRAGVETFADAVIEHPTIYLAVMRMAGSGDERMRQIYRGMRRTFTRWIGASLAEFGVPTTPALEAAISGWQAFMEEIVLSWLDEPTMDRTDMIDLCERAFYHLLPAAGVDVDALDVTR,soluble
6,MEGIMNPYTALPTPQQLLAIEQSVYSSDPFRQGLTPPQMPGDHMHPYGAEPLFHDLDSDDTSLSNLGDCFLATSEAGPLQSRVGNPIDHLYSMQNSYFTS,soluble
7,MTLDLPELPFPLRPYGPDGRWSYADGVLTGVAGSRQDRFVPPTGESLESVSDAPRLLGAPDGDFQLIARVSVGFRGAFDAGVLYVHVGERAWAKLCLEYSPDVPTVCTVVTRGHSDDCNSFTVEGDSVWFRVSRTGRAFAFHASLDGERWTFVRLFTLGDEEETGSALVGFLAQAPTGEGCTVTYDHLEFRPAWPADLRDGSLEHHHHHH,not soluble
8,MAGFEIQRVESKFFDLDDIIAKSDSTSCTFEIGDLNPDFFQEMLGVSKPTQNADGYGVDAPYWLLESVRSSFSIQLPKAYSVNMQNVLNADSKKLNLSGLQQHFYGNGMQLCRLMKGENPDGALSLARCLVSTLTQRLGEIVSTATHLQSKGEKFDSLETKVFLEGKRCKEDIDTWLRQDNKCSSKKRKRLSL,not soluble
9,GSSCPGKSSWPHLVGVGGSVAKAIIERQNPNVKAVILEEGTPVTKDFRCNRVRIWVNKRGLVVSPPRIG,soluble
10,MIDFSNIETYWPMTSSAFGLFITQGGLKPIFTSLNHMWYSKYGYLTERKAKLKEIENEYIYEIEKRKLENQEKFKNEIDCEFSKIPQTSLKEPVEYILYPAINESEQYLSNETLRNMFARTIASTFNQDKEKDLHSAFVQIIKQMTPLDAQNLLLINQEGNNLIANLQIGVHYSKENLSGTVNKANNIYLSKLDYSPDIIASSIDNLTRLGLIKVDYLHYPLDSNYESIKQTTIYKSLESEINTLNLFKTSNTKYDIKIEKGKVSLTDFGKKFISVCLE,not soluble
11,MKYDLTTQDSTIKRNNSINDKDFEKLVMDLQPLIIRRIKTFGFNHYDLEDLYQEILIRMYRSVQTFDFSGEQPFTNYVQCLITSVKYDYLRKYLATNKRMDNLINEYRVTYPCAIKRFDVENNYLNKLAIKELICQFKYLSAFEKDVMYLMCEQYKPREIAQLMHVKEKVIYNAIQRCKNKIKRYFKMI,not soluble
12,RSPYDMEVIGQTIDDAAGEAFDKCAKVMGLGYPGGPIVNKLASEGNPDAFRFARPHVSGYDYSFSGLKTSFLYTLRDKLAEDPDFIEKNKADLCASLQHTVIDILMKKLRQAAKDHSIKQVALAGGVSANTGLRDAFHDHARRYGWTVFIPKFAYTTDNAAMVAISGYYKYLQGDFCPIDAVPFSRITV,not soluble
13,MSIAVTTTDPTNTGVSTTSSSSLTGSNAADLQSSFLTLLVAQLKNQDPTNPMENNELTSQLAQISTVSGIEKLNTTLGSISGQIDNSQSLQASNLIGHGVMIPGTTVLAGTGSEEGAVTTTTPFGVELQQAADKVTATITDKNGAVVRTIDIGELTAGVHSFTWDGTLTDGSTATNGSYNVAISASNGGTQLVAQPLQFALVQGVIRGNNGNTLDLGTYGTTILDEVRQII,soluble
14,SVKETENLLQTGISEVRGTLKISAPRDIGKQIISPMVSAFSEQYPDVTPYLYLNDNLSNLAESGLDLVIRYGELADSNLISRRLASSQRVLCASPDYLSKQGVPNCPQDLAAHRCLAMVRSNEELKTWHFKDEESHQSITVTPKRFSDDGEVIRQWALDGAGIALKSILDIQQDLKQQRLVTVLDGYMKNFSAFSQGAEADLHVIYQSRQYQPKRVRLFLDFLVEQFSALSDTSNQI,not soluble
15,AHHHHHHGSKAIILAAGKGERLRPLTDDRPKVVLKIANKPIISYVLENLDPFVDEFIIVVKYMKEKVIDLLGDEFRGKPITYVEQGEEEGTAAAVYSVKEFIESNEEFFVVNGDLYFEPDAVKGLLHVFKKEKGDAGIVVKEFENLSQYGMVEVENGKVKGIIEKPGNVKGYANLGIYIFKSDVFDYIENTEISERGEYEITDTINLMIKDGKSVVYYNYEGFWSDIGRPWDLLEVNEYILKTKLKHEIRGVVEEGATIIPPVEIGEGTIVRAGSYIIGPVKIGKNCRIGPNCYIRPYTSIGDNCHIGNAVEVKNSIIMDNSNAPHLNYVGDSIIGENTNLGAGTITANLRHDKGTIKVEVKGKLEDSGRRKLGAIIGHNVKVGINVTIYPGRKIGSNSFIGPGVIVDKNIPQNVLVTVKQEKKVIEK,soluble
16,MKVSELMTTDPITVSIDDTFSKVMSKMNETGIHQLPVMDGDRYAGMITYSDLLKKRSIQVKSKISNYTISTPTLNADDDVLEAVRLIKDTGLSALPVFQKGKLVGIISRTDIIKNLPQIVDVRDVRIFQIMSSDPIYVYEDDDIEEAFDSMRMLNEVEIPVASRDEKLSGIIRLNSILNILYRQKEKIKYGGYGEKEPVEIKCKSLMDPPVSVDRYAGIDEAVKLMMQYSLHIMPVTDSGKIVGIVDFSDLINMIKTESKEGILIEISGLDVYDEDLYDIAFELSERFLDKFSKMTDVSQGKLLIHVMKYKTQGSTKYSIRTRISAPPLFLVQNGSGWNFAEVLGEIFDRYEERIKKMKEKQ,not soluble
17,EIFSQELTQREANVKKVHENLEELQKKLDHTSFAHKEDRDRLEAQIAQKEQEQKAKLAEYDQKVQNEFDARERAEREREAARGDAAAEKQRLASLLKDLEDDASGYNRLRPSKPMLSEEDTNILRQLFLSSAVSGSGKFSFQDLKQVLAKYADTIPEGPLKKLFVMVENDTKGRMSYITLVAVANDLAALVADFRKIDTNSNGTLSRKEFREHFVRLGFDKKSVQDALFRYADEDESDDVGFSEYVHLGLCLLVLRILYAFADFDKSGQLSKEEVQKVLEDAHIPESARKKFEHQFSVVDVDDSKSLSYQEFVMLVLLMFHDD,soluble
18,SAAEGDFLMRYRAVSNKLKKRFLRKPNVAEASEQFGQLAKELKQQDCPQYAAFCNLAMARCEQTLFNAPGEALALTDAARLFLASEQETRALRAPGFDENMQAAMNCYSFAIKVYIEMNQPVMAARLSLELGNALKEMNRPGEAIIHFQRAAELQIQMPIEALLSLWEMASCKILTRDYDGALAVLSEMQHMCQERGLQLPGTNTPVGAFMDIIAKCEISRVLLLMLLEPPPQKLLPEHAQTLERYAWESFDSHSQMACQEKDTESLKALQTELW,soluble
19,DEAMVKIEKQEIVEHLSENSLLVQLKYAGASTDEPLLNELYKHYQVMANILYGNIEILDGTPVGELVVVLSGEKAALAGAQEAIRQAGVQLKVLKGVQ,not soluble
20,MDTSTNLDIGAQLIVEECPSTYSLTGMPDIKIEHPLDPNSEEGSAQGVAMGMKFILPNRFDMNVCSRFVKSLNEEDSKNIQDQVNSDLEVASVLFKAECNIHTSPSPGIQVRHVYTPSTTKHFSPIKQSTTLTNKHRGNEVSTTPLLANSLSVHQLAAQGEMLYLATRIEQENVINHTDEEGFTPLMWAAAHGQIAVVEFLLQNGADPQLLGKGRESALSLACSKGYTDIVKMLLDCGVDVNEYDWNGGTPLLYAVHGNHVKCVKMLLESGADPTIETDSGYNSMDLAVALGYRSVQQVIESHLLKLLQNIKE,soluble
21,METTHSLTTDNAPTEDQPILSVTDLHMVSGTHLPELKIYAGLSLVHCGRENSATTLSMTLAGRMKPISGTIELKVQDSDKVLTTPRQLHKAVALAGVPELDSLERLVPVTAAVREQLAWSQPWYRRVPRDVTKSETFINAAKLLDLPNSKEFARQSIGDLDPLTRFRLRIALALIARPHTDLLIVDDIDQIRSLRLRADLLRELKNIAASIPVVAMSANDDVDKIADHEIHVAGALQRKQKAKA,not soluble
22,MIVGAGPAGIRAAAALADAGLHPVVIDEGNRAGGQIYRRPPDGFVRTPGQLYGSEAAKARALHAVFDRLTADGRLTHCAGSSVIAVQTGRLHVLGEGGVQVIFYDRLILATGASDRVAPVPGWQSAGVYSLGAAQIALKAQGVALGRRIVLMGSGPLLTLVGAQLIKAGADVAAVLDTSPWRQQMRGLWKLAARPLVALRGLALRARLGGRYHAGVSLEKIEADGQGVTAMRWRDAGGRQRLTPCDTIGMGWHLRAETHLADLAGCAFTYDEQWRQWLPKTDRMGRAGNGVYLAGDGVRLLGADGAEIAGRLAAAACLADLGFPAPTNAADLRELTRLERFAHGLVCAFPWPAAMVRALPDAAIVCRCENVTAGAVRDSVDLGGGEANRVKSLSRLGMGRCQGRYCHLAAVELAAAQSGCTPDAVGRFRGQAPARPAPIGAFLPEGLEHHHHHH,not soluble
